In patent US7819908B2, “Compositions and methods for reducing lung volume” (Aeris Therapeutics, Inc., priority 2002, dated 2010):

System: sheep
Experiment: Papain-induced emphysema in sheep: lung physiology, plethysmography, CT
Assay type: in vivo
Description: We examined the safety and utility of trypsin preconditioning for BVR in a group of seven sheep with emphysema generated by prior exposure to papain inhalation. This large animal model of emphysema is one with which we have extensive prior experience.

[1] = papain-induced emphysema, Campbell diagram

B1: papain: enzyme given by inhalation or instilled bronchoscopically to sheep to generate the emphysema model (protein, UniProt P00784 134-345, looked up)
Papain: IPEYVDWRQKGAVTPVKNQGSCGSCWAFSAVVTIEGIIKIRTGNLNEYSEQELLDCDRRSYGCNGGYPWSALQLVAQYGIHYRNTYPYEGVQRYCRSREKGPYAAKTDGVRQVQPYNEGALLYSIANQPVSVVLEAAGKDFQLYRGGIFVGPCGNKVDHAVAAVGYGPNYILIKNSWGTGWGENGYIRIKRGTGNSYGVCGLYTSSFYPVKN
- tissue density in Houndsfield units measured by CT scanning (2 weeks following serial papain exposure): significant decrease
- recoil pressures at full inflation (after papain-induced emphysema, baseline 16.4 cm H2O): 8.9 cm H2O
- change in TLC and RV [1]: significant increase
- impact on active or passive chest wall mechanics [1]: no significant impact
- lung volume measured by plethysmography (papain-treated vs untreated, 2 weeks after serial papain exposure): significant increase
- increase in airway resistance (post-papain vs baseline): 75±16%
- residual volume (RV) increased (post-papain vs baseline): 66±21%
- total lung capacity (TLC) increased (post-papain vs baseline): 10±3%
- vital capacity (VC) increased (post-papain vs baseline): 11±4%
- increase in total lung resistance (sum of airway and tissue components) (post-papain vs baseline, normal respiratory frequencies): 40±9%
